B1: scFv; the commonest letter at each place (parent)
chain 1: EVKLDETGGGLVQPGRPMKLSCVASGFTFSDYWMNWVRQSPEKGLEWVAQIRNKPYNYETYYSDSVKGRFTISRDDSKSSVYLQMNNLRVEDMGIYYCTGSYYGMDYWGQGTSVTVS
chain 2: DVVMTQTPLSLPVSLGDQASISCRSSQSLVHSNGNTYLRWYLQKPGQSPKVLIYKVSNRFSGVPDRFSGSGSGTDFTLKISRVEAEDLGVYFCSQSTHVPWTFGGGTKLEIK

Experiments:
[1] = variants of: B1; test: Kd (Tite-Seq); conditions: with fluorescein; format: scFv 4-4-20, heavy + light
[2] = variants of: B1; test: yeast surface expression (ratio to wild type); higher = more expressed; conditions: format: scFv 4-4-20, heavy + light

Variant	Kd [1]	yeast surface expression [2]
chain 1 EVKLDETGGGLVQPGRPMKLSCVASGFTFSDYVMNWFRQSPEKGLEWVAQIRNKPYNYETYYSDSVKGRFTISRDDSKSSVYLQMNNLRVEDMGIYYCTGSYYGMDYWGQGTSVTVS chain 2 DVVMTQTPLSLPVSLGDQASISCRSSQSLVHSNGNTYLRWYLQKPGQSPKVLIYKVSNRFSGVPDRFSGSGSGTDFTLKISRVEAEDLGVYFCSQSTHVPWTFGGGTKLEIK [chain 1 W33V V37F]	≥ 10 µM	0.82
chain 1 EVKLDETGGGLVQPGRPMKLSCVASGFTFSHYWQNWVRQSPEKGLEWVAQIRNKPYNYETYYSDSVKGRFTISRDDSKSSVYLQMNNLRVEDMGIYYCTGSYYGMDYWGQGTSVTVS chain 2 DVVMTQTPLSLPVSLGDQASISCRSSQSLVHSNGNTYLRWYLQKPGQSPKVLIYKVSNRFSGVPDRFSGSGSGTDFTLKISRVEAEDLGVYFCSQSTHVPWTFGGGTKLEIK [chain 1 D31H M34Q]	≥ 10 µM	0.268
chain 1 EVKLDETGGGLVQPGRPMKLSCVASGFTFSDYCKNWVRQSPEKGLEWVAQIRNKPYNYETYYSDSVKGRFTISRDDSKSSVYLQMNNLRVEDMGIYYCTGSYYGMDYWGQGTSVTVS chain 2 DVVMTQTPLSLPVSLGDQASISCRSSQSLVHSNGNTYLRWYLQKPGQSPKVLIYKVSNRFSGVPDRFSGSGSGTDFTLKISRVEAEDLGVYFCSQSTHVPWTFGGGTKLEIK [chain 1 W33C M34K]	≥ 10 µM	0.774

Now from value to variant, other results behind:

Kd [1]	Variant	yeast surface expression [2]
≥ 10 µM	chain 1 EVKLDETGGGLVQPGRPMKLSCVASGFTFFDQWMNWVRQSPEKGLEWVAQIRNKPYNYETYYSDSVKGRFTISRDDSKSSVYLQMNNLRVEDMGIYYCTGSYYGMDYWGQGTSVTVS chain 2 DVVMTQTPLSLPVSLGDQASISCRSSQSLVHSNGNTYLRWYLQKPGQSPKVLIYKVSNRFSGVPDRFSGSGSGTDFTLKISRVEAEDLGVYFCSQSTHVPWTFGGGTKLEIK [chain 1 S30F Y32Q]	0.653
≥ 10 µM	chain 1 EVKLDETGGGLVQPGRPMKLSCVASGFTFSDYWMHWYRQSPEKGLEWVAQIRNKPYNYETYYSDSVKGRFTISRDDSKSSVYLQMNNLRVEDMGIYYCTGSYYGMDYWGQGTSVTVS chain 2 DVVMTQTPLSLPVSLGDQASISCRSSQSLVHSNGNTYLRWYLQKPGQSPKVLIYKVSNRFSGVPDRFSGSGSGTDFTLKISRVEAEDLGVYFCSQSTHVPWTFGGGTKLEIK [chain 1 N35H V37Y]	0.779
0.311 µM	chain 1 EVKLDETGGGLVQPGRPMKLSCVASGFTNTDYWENWVRQSPEKGLEWVAQIRNKPYNYETYYSDSVKGRFTISRDDSKSSVYLQMNNLRVEDMGIYYCTGSYYGMDYWGQGTSVTVS chain 2 DVVMTQTPLSLPVSLGDQASISCRSSQSLVHSNGNTYLRWYLQKPGQSPKVLIYKVSNRFSGVPDRFSGSGSGTDFTLKISRVEAEDLGVYFCSQSTHVPWTFGGGTKLEIK [chain 1 F29N S30T M34E]	1.73

From the FLAb antibody collection (doi:10.7554/elife.23156)
